This test has as its target T1, Flag-Cas9 (wild-type, unmodified SpCas9) (Streptococcus pyogenes, UniProt Q99ZW2 2-1368).
T1 construct: expressed in HEK293; also called original Cas9; wt Cas9; not shown: Flag tag and N-terminal NLS of the vector; C-terminal NLS and what remains of the T2A peptide
In words: co-immunoprecipitation, anti-Flag IP from transfected HEK293 extracts, immunoblot.

T1 sequence (Q99ZW2 2-1368): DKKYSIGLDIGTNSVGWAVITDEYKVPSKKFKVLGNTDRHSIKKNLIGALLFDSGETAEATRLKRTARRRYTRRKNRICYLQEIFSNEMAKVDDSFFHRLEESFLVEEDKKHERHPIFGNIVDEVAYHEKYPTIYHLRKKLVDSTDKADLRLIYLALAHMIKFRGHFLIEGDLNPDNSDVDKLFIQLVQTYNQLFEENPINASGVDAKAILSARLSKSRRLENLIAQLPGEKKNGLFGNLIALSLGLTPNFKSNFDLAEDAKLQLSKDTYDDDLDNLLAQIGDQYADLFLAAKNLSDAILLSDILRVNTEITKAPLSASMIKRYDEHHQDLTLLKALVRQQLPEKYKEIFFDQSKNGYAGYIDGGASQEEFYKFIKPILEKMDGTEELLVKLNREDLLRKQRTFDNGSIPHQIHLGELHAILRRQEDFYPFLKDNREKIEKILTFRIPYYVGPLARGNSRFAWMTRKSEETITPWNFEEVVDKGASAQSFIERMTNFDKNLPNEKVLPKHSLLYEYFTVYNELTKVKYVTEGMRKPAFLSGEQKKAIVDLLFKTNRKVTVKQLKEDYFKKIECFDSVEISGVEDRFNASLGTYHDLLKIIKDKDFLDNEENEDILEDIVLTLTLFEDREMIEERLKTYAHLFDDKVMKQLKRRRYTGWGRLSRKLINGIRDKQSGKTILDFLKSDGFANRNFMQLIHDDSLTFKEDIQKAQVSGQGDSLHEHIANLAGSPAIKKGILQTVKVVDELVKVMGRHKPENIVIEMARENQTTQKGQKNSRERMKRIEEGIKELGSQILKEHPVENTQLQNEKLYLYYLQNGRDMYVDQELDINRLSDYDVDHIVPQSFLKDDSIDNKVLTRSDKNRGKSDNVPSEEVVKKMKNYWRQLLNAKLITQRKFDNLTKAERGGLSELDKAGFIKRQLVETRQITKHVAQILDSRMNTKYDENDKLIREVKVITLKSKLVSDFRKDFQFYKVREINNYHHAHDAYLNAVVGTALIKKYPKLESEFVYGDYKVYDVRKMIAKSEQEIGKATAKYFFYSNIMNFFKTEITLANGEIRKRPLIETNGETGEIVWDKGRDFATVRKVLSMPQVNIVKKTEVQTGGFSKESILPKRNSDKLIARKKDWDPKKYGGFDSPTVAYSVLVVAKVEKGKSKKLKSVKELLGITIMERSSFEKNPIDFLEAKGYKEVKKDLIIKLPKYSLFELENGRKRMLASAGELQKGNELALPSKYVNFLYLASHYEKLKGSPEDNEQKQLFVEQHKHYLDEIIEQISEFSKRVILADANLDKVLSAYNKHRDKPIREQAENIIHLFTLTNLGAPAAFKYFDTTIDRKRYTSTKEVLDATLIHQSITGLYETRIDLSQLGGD

B1: Double-strand break repair protein MRE11A (enzyme)
chain: STADALDDENTFKILVATDIHLGFMEKDAVRGNDTFVTLDEILRLAQENEVDFILLGGDLFHENKPSRKTLHTCLELLRKYCMGDRPVQFEILSDQSVNFGFSKFPWVNYQDGNLNISIPVFSIHGNHDDPTGADALCALDILSCAGFVNHFGRSMSVEKIDISPVLLQKGSTKIALYGLGSIPDERLYRMFVNKKVTMLRPKEDENSWFNLFVIHQNRSKHGSTNFIPEQFLDDFIDLVIWGHEHECKIAPTKNEQQLFYISQPGSSVVTSLSPGEAVKKHVGLLRIKGRKMNMHKIPLHTVRQFFMEDIVLANHPDIFNPDNPKVTQAIQSFCLEKIEEMLENAERERLGNSHQPEKPLVRLRVDYSGGFEPFSVLRFSQKFVDRVANPKDIIHFFRHREQKEKTGEEINFGKLITKPSEGTTLRVEDLVKQYFQTAEKNVQLSLLTERGMGEAVQEFVDKEEKDAIEELVKYQLEKTQRFLKERHIDALEDKIDEEVRRFRETRQKNTNEEDDEVREAMTRARALRSQSEESASAFSADDLMSIDLAEQMANDSDDSISAATNKGRGRGRGRRGGRGQNSASRGGSQRGRADTGLETSTRSRNSKTAVSASRNMSIIDAFKSTRQQPSRNVTTKNYSEVIEVDESDVEEDIFPTTSKTDQRWSSTSSSKIMSQSQVSKGVDFESSEDDDDDPFMNTSSLRRNRR
With B1, the binding result was “no binding”.

B2: DNA repair protein RAD50 (other)
chain: MSRIEKMSILGVRSFGIEDKDKQIITFFSPLTILVGPNGAGKTTIIECLKYICTGDFPPGTKGNTFVHDPKVAQETDVRAQIRLQFRDVNGELIAVQRSMVCTQKSKKTEFKTLEGVITRTKHGEKVSLSSKCAEIDREMISSLGVSKAVLNNVIFCHQEDSNWPLSEGKALKQKFDEIFSATRYIKALETLRQVRQTQGQKVKEYQMELKYLKQYKEKACEIRDQITSKEAQLTSSKEIVKSYENELDPLKNRLKEIEHNLSKIMKLDNEIKALDSRKKQMEKDNSELEEKMEKVFQGTDEQLNDLYHNHQRTVREKERKLVDCHRELEKLNKESRLLNQEKSELLVEQGRLQLQADRHQEHIRARDSLIQSLATQLELDGFERGPFSERQIKNFHKLVRERQEGEAKTANQLMNDFAEKETLKQKQIDEIRDKKTGLGRIIELKSEILSKKQNELKNVKYELQQLEGSSDRILELDQELIKAERELSKAEKNSNVETLKMEVISLQNEKADLDRTLRKLDQEMEQLNHHTTTRTQMEMLTKDKADKDEQIRKIKSRHSDELTSLLGYFPNKKQLEDWLHSKSKEINQTRDRLAKLNKELASSEQNKNHINNELKRKEEQLSSYEDKLFDVCGSQDFESDLDRLKEEIEKSSKQRAMLAGATAVYSQFITQLTDENQSCCPVCQRVFQTEAELQEVISDLQSKLRLAPDKLKSTESELKKKEKRRDEMLGLVPMRQSIIDLKEKEIPELRNKLQNVNRDIQRLKNDIEEQETLLGTIMPEEESAKVCLTDVTIMERFQMELKDVERKIAQQAAKLQGIDLDRTVQQVNQEKQEKQHKLDTVSSKIELNRKLIQDQQEQIQHLKSTTNELKSEKLQISTNLQRRQQLEEQTVELSTEVQSLYREIKDAKEQVSPLETTLEKFQQEKEELINKKNTSNKIAQDKLNDIKEKVKNIHGYMKDIENYIQDGKDDYKKQKETELNKVIAQLSECEKHKEKINEDMRLMRQDIDTQKIQERWLQDNLTLRKRNEELKEVEEERKQHLKEMGQMQVLQMKSEHQKLEENIDNIKRNHNLALGRQKGYEEEIIHFKKELREPQFRDAEEKYREMMIVMRTTELVNKDLDIYYKTLDQAIMKFHSMKMEEINKIIRDLWRSTYRGQDIEYIEIRSDADENVSASDKRRNYNYRVVMLKGDTALDMRGRCSAGQKVLASLIIRLALAETFCLNCGIIALDEPTTNLDRENIESLAHALVEIIKSRSQQRNFQLLVITHDEDFVELLGRSEYVEKFYRIKKNIDQCSEIVKCSVSSLGFNVH
On to B2, for which the binding result is recorded as “no binding”.

B3: Nibrin (other)
chain: MWKLLPAAGPAGGEPYRLLTGVEYVVGRKNCAILIENDQSISRNHAVLTANFSVTNLSQTDEIPVLTLKDNSKYGTFVNEEKMQNGFSRTLKSGDGITFGVFGSKFRIEYEPLVACSSCLDVSGKTALNQAILQLGGFTVNNWTEECTHLVMVSVKVTIKTICALICGRPIVKPEYFTEFLKAVESKKQPPQIESFYPPLDEPSIGSKNVDLSGRQERKQIFKGKTFIFLNAKQHKKLSSAVVFGGGEARLITEENEEEHNFFLAPGTCVVDTGITNSQTLIPDCQKKWIQSIMDMLQRQGLRPIPEAEIGLAVIFMTTKNYCDPQGHPSTGLKTTTPGPSLSQGVSVDEKLMPSAPVNTTTYVADTESEQADTWDLSERPKEIKVSKMEQKFRMLSQDAPTVKESCKTSSNNNSMVSNTLAKMRIPNYQLSPTKLPSINKSKDRASQQQQTNSIRNYFQPSTKKRERDEENQEMSSCKSARIETSCSLLEQTQPATPSLWKNKEQHLSENEPVDTNSDNNLFTDTDLKSIVKNSASKSHAAEKLRSNKKREMDDVAIEDEVLEQLFKDTKPELEIDVKVQKQEEDVNVRKRPRMDIETNDTFSDEAVPESSKISQENEIGKKRELKEDSLWSAKEISNNDKLQDDSEMLPKKLLLTEFRSLVIKNSTSRNPSGINDDYGQLKNFKKFKKVTYPGAGKLPHIIGGSDLIAHHARKNTELEEWLRQEMEVQNQHAKEESLADDLFRYNPYLKRRR
notes: also called Nbs1; NBN
Consider B3, for which the binding result is on record as “no binding”.

Source of the values: patent US20210115092A1 (YEDA RESEARCH AND DEVELOPMENT, published 2021).
